Data as given in the DeepSol protein solubility set.

assay: soluble on expression in E. coli; label from the status in PepcDB or PDB records

Sequence	soluble on expression in E. coli
MAHHHHHHMNESSIYIYNLTRNVSINHLKEIFMNFGTLKDVQYVTYVEESMFHEKGDGKDGDKKEDNDDKEEDDDKEEDNNKEEDNDKEEDNDKEEDNDNNDDNNDDNNDDNNDDGDDNDDNHICVHIKYENSKEAQAAKEFMDGGQIDGKIISVKYKINHKYIKTYTKKKKEKKKKN	not soluble
MSAKIYRPAKTAMQSGTAKTNVWVLEFDAEVPRKIDPIMGYTSSSDMKQQVKLTFETQEQAEAYAQRKGIEYRVILPKEATRKVVSYTDNFRFNRTQPWTHLEHHHHHH	soluble
MFEALKEVLGEINSKLAAVNNELSSKIMSENIVSTRPVAQAQYCGPYKLEKTLGKGQTGLVKTGTHCITGRKVAIKIVNKEKLSESVLQKVEREIAIMKLIEHPHVLHLYDVYENKKYLYLLLEHVSGGELFDYLVRKGRLMSKEARKFFRQIISALDFCHAHNICHRDLKPENLLLDERNNIKVADFGMASLQVEGSMLETSCGSPHYACPEVIRGEKYDGRKADVWSCGVILYALLVGALPFDDDNLRNLLEKVKRGVFHIPHFVPADVQSLLRAMIEVDPGKRYSLADVFKHPWVSGTTKADPELELPMSQVVQTHVIPGEDSIDPDVLRHMNCLGCFKDKQKLINELLSPKHNTEKMVYFLLLDRKRRRPAQEDDTEIVLRGAAQNNDPPKKRTDSSRTSRYPMGSIADGSPINPRKTYGRNQKSGRHSSLGGSPTESPRSSTRDLFGSSSSGSYSARAGEDRDRGRSASRSTNSYHYYTQPVDPQTLAEAARHVRDAQERRESRDSGRGSSRKESKDRSDKSASSSSCKNDASSTSSVPHKYSPPSVMSESVVVSSSTMNSTNSSTNSLIAGNSQTSIGSTSGPWRSKLNNIKNSFLGTPRFHRRKMSNGTAESDSEDSQMIDTTDLVKKSWFGSLASSMSVERDDTHCVPVQGKTLNSIKAELIRAFLQIHELSHSVVGQNCFRVEYKRGPTVGGSVFSRGIKMNVDIIPSPQQVVIAGETPTYVVQFVLLAGPVRRFKRLVEHLSAILQNSTQQRADRQQQAALMVRPRRLSDSSVGSACSDSESNASSINMIARHSDKTETTSATSSDPYGPSPSMRSVGSGTANSYKSPTPHRRNTTAVTASSSSASNRYGPSSSSSGSYSNNADYSYHPEYSQRSNGSSAPKNQYSPGSQRSFAFSMFNKADKV	not soluble
MLKIIRAGMYTTVQDGGRHGFRQSGISHCGALDMPALRIANLLVGNDANAPALEITLGQLTVEFETDGWFALTGAGCEARLDDNAVWTGWRLPMKAGQRLTLKRPQHGMRSYLAVAGGIDVPPVMGSCSTDLKVGIGGLEGRLLKDGDRLPIGKSKRDSMEAQGVKQLLWGNRIRALPGPEYHEFDRASQDAFWRSPWQLSSQSNRMGYRLQGQILKRTTDRELLSHGLLPGVVQVPHNGQPIVLMNDAQTTGGYPRIACIIEADMYHLAQIPLGQPIHFVQCSLEEALKARQDQQRYFEQLAWRLHNEN	soluble
MTEKINIQEVLVVEGKDDTANLRRFYEVDTYETRGSAITEEDLERINRLNDLRGVIVLTDPDYNGERIRKLIMAAVPTARHAFLNRNEAVPSSKSKGRSLGVEHANFEDLQKALAHVTQQYDDESYFDIRQTDLIRLGLLMASDSRKRREYLGEKLRIGYANGKQLLKRLELFGITLAEVEEVMETYEE	not soluble
MKNIIRTPETHPLTWRLRDDKQPVWLDEYRSKNGYEGARKALTGLSPDEIVNQVKDAGLKGRGGAGFSTGLKWSLMPKDESMNIRYLLCNADEMEPGTYKDRLLMEQLPHLLVEGMLISAFALKAYRGYIFLRGEYIEAAVNLRRAIAEATEAGLLGKNIMGTGFDFELFVHTGAGRYICGEETALINSLEGRRANPRSKPPFPATSGVWGKPTCVNNVETLCNVPAILANGVEWYQNISKSKDAGTKLMGFSGRVKNPGLWELPFGTTAREILEDYAGGMRDGLKFKAWQPGGAGTDFLTEAHLDLPMEFESIGKAGSRLGTALAMAVDHEINMVSLVRNLEEFFARESCGWCTPCRDGLPWSVKILRALERGEGQPGDIETLEQLCRFLGPGKTFCAHAPGAVEPLQSAIKYFREEFEAGIKQPFSNTHLINGIQPNLLKERWLEHHHHHH	not soluble
MVKVVGVRFKKAGKIYYFDPGDLEINLHENVIVETARGIEFGQVVVPNTEVSEEEIVAPLKKVIRVATEEDKAHHEDNIRREKEAFDICLQKIANHKLEMKLVGVEYTFDNNKILFYFTADGRVDFRELVKDLASVFRTRIELRQIGVRDEAKMMGGLGVCGRVLCCNSFLGEFQPVSIKMAKEQGLSLNPAKISGACGRLMCCLKYEQEAYEEIISRVPKEGAIVETPDGQGVVMSVSLLKELVKVKLDRENETDLKVYKASEVKVIKDVTREETEEEEIDLDELKQLED	soluble
